Assay results from paper PMC2646509.

Target: T1, PrfA L140F L140F (Listeria monocytogenes (NF-L1166)) (UniProt P22262)
T1 sequence: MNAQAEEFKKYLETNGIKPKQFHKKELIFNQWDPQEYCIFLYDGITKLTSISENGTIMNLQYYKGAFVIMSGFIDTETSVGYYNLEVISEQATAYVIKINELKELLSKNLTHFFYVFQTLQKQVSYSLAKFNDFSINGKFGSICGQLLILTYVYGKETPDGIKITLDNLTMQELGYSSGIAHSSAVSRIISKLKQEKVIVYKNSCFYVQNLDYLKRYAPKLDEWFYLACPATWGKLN
Assay: EMSA

Sequence: GATGCTTCTAAAAAAGTTGCTGAAGCTTGGGAAGCAGTTGGGGTTAACTGATTAACAAATGTTAGAGAAAAATTAATTCTCCAAGTGATATTCTTAAAATAATTCATGAATA (double strand) [actA promoter]
- binding: binds
